Where no end group is shown, it is not given here.
T1: peptide MA3#2 conjugated to KLH (human, also: conjugated to KLH)
T1 construct: MAGE-A3 residues 163-180 with an added N-terminal residue; by an error of synthesis it lacks the Ile of position 177; also called MAGE-A3 peptide #2; peptide #2
T1 peptide: CGIELMEVDPIGHLYFAT

T2: MAGE-A4 (human, UniProt P43358 1-317)
T2 construct: In lysates of transiently transfected HEK 293 cells; construct not described
T2 sequence: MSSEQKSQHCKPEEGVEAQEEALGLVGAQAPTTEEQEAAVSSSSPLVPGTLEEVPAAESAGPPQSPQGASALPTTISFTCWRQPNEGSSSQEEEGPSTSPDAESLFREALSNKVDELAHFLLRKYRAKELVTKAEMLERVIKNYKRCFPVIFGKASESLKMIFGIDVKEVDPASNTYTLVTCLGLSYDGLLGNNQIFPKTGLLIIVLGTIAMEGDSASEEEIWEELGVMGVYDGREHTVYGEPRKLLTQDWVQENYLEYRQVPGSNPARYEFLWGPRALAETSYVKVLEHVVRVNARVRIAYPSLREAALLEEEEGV

T3: MAGE-A8 (human, UniProt P43361 1-318)
T3 construct: In lysates of transiently transfected HEK 293 cells; construct not described
T3 sequence: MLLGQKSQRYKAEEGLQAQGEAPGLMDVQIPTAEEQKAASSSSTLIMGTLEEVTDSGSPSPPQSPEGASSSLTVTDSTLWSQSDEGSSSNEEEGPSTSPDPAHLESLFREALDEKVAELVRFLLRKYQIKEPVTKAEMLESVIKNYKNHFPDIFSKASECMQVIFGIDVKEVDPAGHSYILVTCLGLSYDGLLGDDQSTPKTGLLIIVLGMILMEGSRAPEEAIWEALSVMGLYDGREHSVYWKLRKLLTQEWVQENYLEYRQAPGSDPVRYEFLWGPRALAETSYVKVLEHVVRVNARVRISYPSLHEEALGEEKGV

T4: MAGE-A11 (human, UniProt P43364 1-429)
T4 construct: In lysates of transiently transfected HEK 293 cells; construct not described
T4 sequence: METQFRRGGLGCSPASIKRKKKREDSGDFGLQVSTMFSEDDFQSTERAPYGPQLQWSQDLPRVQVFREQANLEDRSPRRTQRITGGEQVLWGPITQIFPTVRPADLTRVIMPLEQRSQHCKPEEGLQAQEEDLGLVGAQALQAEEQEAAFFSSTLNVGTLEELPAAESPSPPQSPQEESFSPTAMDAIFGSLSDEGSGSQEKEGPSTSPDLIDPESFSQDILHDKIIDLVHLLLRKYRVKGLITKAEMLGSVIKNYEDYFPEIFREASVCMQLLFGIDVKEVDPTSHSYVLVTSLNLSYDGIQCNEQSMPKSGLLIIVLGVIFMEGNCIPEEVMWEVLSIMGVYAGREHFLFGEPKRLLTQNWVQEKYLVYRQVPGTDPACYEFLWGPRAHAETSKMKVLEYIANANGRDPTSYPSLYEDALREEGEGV

T5: MAGE-A9 (human, UniProt P43362 1-315)
T5 construct: constructs not described
T5 sequence: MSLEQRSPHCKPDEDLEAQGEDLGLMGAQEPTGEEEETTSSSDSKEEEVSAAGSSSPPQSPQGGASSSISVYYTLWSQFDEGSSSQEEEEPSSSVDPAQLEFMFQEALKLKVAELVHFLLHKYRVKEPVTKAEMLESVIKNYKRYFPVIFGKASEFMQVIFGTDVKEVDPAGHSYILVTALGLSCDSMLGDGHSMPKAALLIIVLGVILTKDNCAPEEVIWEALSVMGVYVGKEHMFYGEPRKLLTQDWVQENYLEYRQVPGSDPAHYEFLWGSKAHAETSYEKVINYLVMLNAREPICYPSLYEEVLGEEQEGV

T6: MAGE-A1 (human, UniProt P43355 1-309)
T6 construct: In lysates of transiently transfected HEK 293 cells; construct not described
T6 sequence: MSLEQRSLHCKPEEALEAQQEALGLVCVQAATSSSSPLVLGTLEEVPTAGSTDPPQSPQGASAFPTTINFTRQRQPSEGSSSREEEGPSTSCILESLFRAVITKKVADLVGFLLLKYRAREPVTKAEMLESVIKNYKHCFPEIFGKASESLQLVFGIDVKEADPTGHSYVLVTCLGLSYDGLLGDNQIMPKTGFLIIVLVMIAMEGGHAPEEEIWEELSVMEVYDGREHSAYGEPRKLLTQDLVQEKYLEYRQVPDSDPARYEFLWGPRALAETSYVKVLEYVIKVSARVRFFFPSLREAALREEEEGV

T7: peptide MA3#3 conjugated to KLH (human, conjugated to keyhole limpet haemocyanin (KLH))
T7 construct: MAGE-A3 residues 73-90 with two added residues at the N-terminus for linkage to the carrier; also called MAGE-A3 peptide #3; peptide #3
T7 peptide: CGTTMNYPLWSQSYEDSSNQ

T8: peptide MA3#1 conjugated to KLH (human, also: conjugated to KLH)
T8 construct: MAGE-A3 residues 137-147 with added residue(s) at the N-terminus for linkage to the carrier; also called MAGE-A3 peptide #1; peptide #1
T8 peptide: CGSVVGNWQYFF


Columns and labels:
[1] = biological target: T1, peptide MA3#2 conjugated to KLH; experiment: ELISA, hybridoma supernatant on 0.5 µg/well peptide-KLH
MAGE-A4 = biological target: T2, MAGE-A4; experiment: Western blot, lysates of transiently transfected HEK 293 cells
Procedure: (§1) The specificity of mAbs 1B1, 16G7 and 23D2 were tested in Western blot analyses on HEK 293 cells transiently transfected with plasmids encoding MAGE-A1, A2, A3, A4, A6, A8, A9, A10, All and A12. Non-transfected cells were used as a control. Between 25 and 85 μg of lysates of transfected or non-transfected cells were electrophoresed on SDS-PAGE and transferred onto nitrocellulose. Immunodetection was performed by incubation of the blots with each of mAbs 1B1, 16G7 and 23D2. Immunodetection was additionally performed using a mixture of mAbs that together recognized all of the MAGE-A antigens expressed by the transfectants (see Table 6 for mAbs in this mixture).
(§2) Method: mini-gels were prepared with 10% acrylamide in the running gel and 4.5% acrylamide in the stacking gel. Samples were prepared in 40 μl of loading buffer (reducing conditions), the gel was loaded and migrated at 100V in the stacking gel and 200 V in the running gel. Proteins were transferred onto nitrocellulose at 100 mA during one hour at 4° C., and the membrane incubated in TBS-5% skimmed milk, and incubated with antibody diluted in TBS-1% skim milk for one hour at room temperature.

MAGE-A6 = biological target: T9, MAGE-A6 (human, UniProt P43360 1-314); experiment: as above
T9 construct: In lysates of transiently transfected HEK 293 cells (Western blot); also endogenous MAGE-A6 in K562 lysate; Construct not described
T9 sequence (P43360 whole entry Y283N): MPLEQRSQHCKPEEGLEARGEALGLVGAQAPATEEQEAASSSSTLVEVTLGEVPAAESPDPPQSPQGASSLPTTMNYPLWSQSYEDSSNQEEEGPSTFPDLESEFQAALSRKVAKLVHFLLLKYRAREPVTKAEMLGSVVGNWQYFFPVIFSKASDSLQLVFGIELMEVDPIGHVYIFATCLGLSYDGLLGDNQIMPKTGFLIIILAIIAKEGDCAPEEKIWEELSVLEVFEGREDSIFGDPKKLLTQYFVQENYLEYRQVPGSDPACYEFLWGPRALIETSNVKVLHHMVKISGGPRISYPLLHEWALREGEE
Procedure: as §1, §2

MAGE-A8 = biological target: T3, MAGE-A8; experiment: as above
Procedure: as §1, §2

MAGE-A10 = biological target: T10, MAGE-A10 (human, UniProt P43363 1-369); experiment: as above
T10 construct: In lysates of transiently transfected HEK 293 cells; construct not described
T10 sequence (P43363 whole entry R166K/V234I): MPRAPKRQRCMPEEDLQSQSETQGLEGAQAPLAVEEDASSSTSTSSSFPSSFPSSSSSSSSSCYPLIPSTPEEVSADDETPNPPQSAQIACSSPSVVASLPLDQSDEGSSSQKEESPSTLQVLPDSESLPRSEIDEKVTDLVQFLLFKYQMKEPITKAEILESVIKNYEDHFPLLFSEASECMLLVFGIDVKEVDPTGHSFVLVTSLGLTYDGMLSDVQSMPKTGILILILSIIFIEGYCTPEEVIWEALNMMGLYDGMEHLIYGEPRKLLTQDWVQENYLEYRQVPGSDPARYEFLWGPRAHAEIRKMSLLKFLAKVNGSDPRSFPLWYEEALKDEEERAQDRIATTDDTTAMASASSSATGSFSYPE
Procedure: as §1, §2

MAGE-A11 = biological target: T4, MAGE-A11; experiment: as above
Procedure: as §1, §2

MAGE-A9 = biological target: T5, MAGE-A9; experiment: as above
Procedure: as §1, §2

MAGE-A1 = biological target: T6, MAGE-A1; experiment: as above
Procedure: as §1, §2

[2] = biological target: T11, MAGE-A12 recombinant protein (LVL314) (human, UniProt P43365 1-314); experiment: ELISA, clone culture supernatant on coated antigen, GAM IgG-HRP, OD 405 nm
T11 construct: Purified full-length recombinant protein in ELISA and Western blot; the same id is used for MAGE-A12 in lysates of transfected HEK 293 cells; also called recMA12
T11 sequence (P43365 whole entry): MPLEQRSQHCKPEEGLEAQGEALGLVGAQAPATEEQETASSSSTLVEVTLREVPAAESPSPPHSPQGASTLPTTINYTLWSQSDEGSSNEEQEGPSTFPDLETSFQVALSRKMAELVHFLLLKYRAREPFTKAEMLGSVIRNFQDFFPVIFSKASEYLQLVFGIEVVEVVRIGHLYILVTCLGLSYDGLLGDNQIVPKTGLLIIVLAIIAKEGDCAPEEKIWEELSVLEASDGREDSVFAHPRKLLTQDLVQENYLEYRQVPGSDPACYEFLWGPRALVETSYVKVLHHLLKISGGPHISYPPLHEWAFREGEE
Procedure: (§3) Wells of a Nunc MAXISORP™ 96-well were coated with antigen. The antigen was diluted in Tris-buffered saline (TBS) at 0.1 μg/50 μl for purified recombinant MAGE proteins, or at 0.5 μg/50 μl for peptides conjugated to KLH, and distributed at 50 μl per well and dried overnight at 37° C. The wells were washed several times in TBS and 50 μl of TBS-1% casein was added to each well. Wells were incubated for 1 hour at 37° C. and washed again several times in TBS.
(§4) In total, 75 clones from Example 5 that grew easily after transfer into 24-well plates were tested two days later in ELISA for reactivity with the following antigens: recombinant MAGE-A3, recombinant MAGE-A2; recombinant MAGE-A12; peptide MA3 #1 conjugated to KLH; peptide MA3 #2 conjugated to KLH; and peptide MA3#3 conjugated to KLH.
(§5) For each clone, 50 μl of culture medium supernatant was transferred into a well of a 96-well plate containing 0.1 μg/well of one of the recombinant MAGE proteins or 0.5 μg/well of one of the peptides conjugated to KLH. As positive control, 50 μl of 57B hybridoma supernatant was tested on each of the antigens.

[3] = biological target: T7, peptide MA3#3 conjugated to KLH; experiment: as above
Procedure: as §3, §4, §5

[4] = biological target: T12, MAGE-A2 recombinant protein (LVL313) (human, UniProt P43356 1-314); experiment: as above
T12 construct: Purified full-length recombinant protein in ELISA and Western blot; the same id is used for MAGE-A2 in lysates of transfected HEK 293 cells; also called recMA2
T12 sequence (P43356 whole entry): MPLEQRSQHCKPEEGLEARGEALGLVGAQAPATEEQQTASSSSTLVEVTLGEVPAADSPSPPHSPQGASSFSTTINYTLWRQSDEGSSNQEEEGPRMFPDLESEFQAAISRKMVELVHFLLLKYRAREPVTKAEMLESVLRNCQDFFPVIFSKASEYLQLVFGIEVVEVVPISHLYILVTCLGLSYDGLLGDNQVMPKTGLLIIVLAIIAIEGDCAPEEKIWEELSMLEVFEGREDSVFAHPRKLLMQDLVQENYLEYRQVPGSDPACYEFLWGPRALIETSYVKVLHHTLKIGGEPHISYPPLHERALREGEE
Procedure: as §3, §4, §5

[5] = biological target: T8, peptide MA3#1 conjugated to KLH; experiment: as above
Procedure: as §3, §4, §5

[6] = biological target: T1, peptide MA3#2 conjugated to KLH; experiment: as above
Procedure: as §3, §4, §5

[7] = biological target: T13, full-length recombinant MAGE-A3 protein (human, UniProt P43357 1-314); experiment: ELISA, biotinylated mAb 23D2 on 0.1 µg/well recombinant MAGE-A3, OD 405 nm
T13 construct: Full-length recombinant protein (made in baculovirus or E. coli, GSK); Also used here for endogenous MAGE-A3 in GERL cell lysate and for summary statements on MAGE-A3; also called recMA3; MA3
T13 sequence (P43357 whole entry): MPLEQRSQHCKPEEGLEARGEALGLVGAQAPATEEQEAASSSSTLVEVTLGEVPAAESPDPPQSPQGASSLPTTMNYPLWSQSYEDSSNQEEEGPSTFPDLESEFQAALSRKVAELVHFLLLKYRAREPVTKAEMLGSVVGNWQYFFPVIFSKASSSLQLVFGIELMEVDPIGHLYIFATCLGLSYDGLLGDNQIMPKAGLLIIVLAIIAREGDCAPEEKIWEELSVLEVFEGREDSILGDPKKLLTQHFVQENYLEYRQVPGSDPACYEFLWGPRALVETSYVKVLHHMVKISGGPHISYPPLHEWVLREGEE
Procedure: An ELISA against MAGE-A3 was then performed using dilutions of biotinylated mAb 23D2 ([…], 0.1, 0.15, 0.2, 0.25 and 0.3 μg/50 μl) to determine useful conditions of use of the biotinylated mAb 23D2.

Row | binding result [1] | binding result (MAGE-A6) | binding result [2] | binding result [3] | binding result [4] | binding result [5] | binding result [6] | EC50 (read off the curve) [7] | Binder | binding result (MAGE-A4) | binding result (MAGE-A8) | binding result (MAGE-A10) | binding result (MAGE-A11) | binding result (MAGE-A9) | binding result (MAGE-A1)
1 | no binding | binds | no binding | binds | no binding | no binding |  |  | mAb 1B1 (antibody, IgG1, V domains shown, Tested as hybridoma supernatant; also called clone 1B1; hybridoma 1B1) VH: DVQLQESGPGLVKPSQSLSLTCTVTGYSITSDYVWNWIRQFPGNKLEWMGYIGHSGRTSYNPSLKSRISITRDTSKNQFFLQLNSVTSEDTATYYCARGGNNGFAYWGQGTLVTVSA VL: DIVMTQSPSSLTVTAGEKVTMSCKSSQSLLNSGNQKNYLTWYQQKPGQPPKLLIYWTSTRDSGVPDRFTGSGSGTDFTLTISSVQAEDLAVYYCQNDYSYPPTFGGGTKLEIKR | no binding (tested: Between 25 and 85 µg of lysates) | no binding (tested: Between 25 and 85 µg of lysates) | no binding (tested: Between 25 and 85 µg of lysates) | no binding (tested: Between 25 and 85 µg of lysates) | no binding (tested: Between 25 and 85 µg of lysates) | no binding (tested: Between 25 and 85 µg of lysates)
2 |  | binds | no binding | binds | no binding | no binding | no binding |  | mAb 16G7 (antibody, IgG1, V domains shown, also called clone 16G7; hybridoma 16G7) VH: EVMVVESGGGLVKPGGSLKLSCAASGFTFRTNAMSWVRQTPEKRLEWVATITSGGGSTYYPVSVKGRFTISRDNAKNTLYLQMSSLRSEDTAIYYCVRQDYFDYWGQGTFVIVSS VL: QAVVTQESALTTSPGETVTLTCRSSTGAVTSTNYANWVQEKPDHLFTGLIGGTNNRAPGVPARFSGSLIGDKAALTITGAQTEDEAIYFCALWYSNHWVFGGGTKLTVL | no binding (tested: Between 25 and 85 µg of lysates) | no binding (tested: Between 25 and 85 µg of lysates) | no binding (tested: Between 25 and 85 µg of lysates) | no binding (tested: Between 25 and 85 µg of lysates) | no binding (tested: Between 25 and 85 µg of lysates) | no binding (tested: Between 25 and 85 µg of lysates)
3 |  | binds | no binding | binds | no binding | no binding | no binding | ~0.006 µg/50 µl | mAb 23D2 (antibody, IgG2a, V domains shown, In the FIG. 8 ELISA and the FIG. 9 competition assay the antibody was biotinylated; the sites are not stated and the letters do not carry them., also called clone 23D2; hybridoma 23D2) VH: DVKLVESGGGLVKPGGSLKVSCVASGFTFSSYTMSWVRQTPEKRLEWVATITSGGGSSYYPDSVKGRFTISRDNAKNTLYLQITSLKSEDTAMYYCTSGGGVLLRLPLFAYWGQGTTLTVSS VL: QAVVTQESALTTSPGETVTLTCRSSTGAVTASNYANWVQEKPDHSFTGLIGGINNRAPGVPARFSGSLIGDKAALTITGAQTEDEAIYFCALWYNNHWVFGGGTKLTVL | no binding (tested: Between 25 and 85 µg of lysates) | no binding (tested: Between 25 and 85 µg of lysates) | no binding (tested: Between 25 and 85 µg of lysates) | no binding (tested: Between 25 and 85 µg of lysates) | no binding (tested: Between 25 and 85 µg of lysates) | no binding (tested: Between 25 and 85 µg of lysates)

— US20130123472A1 (GlaxoSmithKline, published 2013)
